Patent publication US20240041994A1, “CMV VACCINE AND METHOD OF MAKING AND USING THE SAME” (priority 2017, published 2024)
Ends that are not written are not given here.

Target: T1, CD94-NKG2A (Homo sapiens, UniProt P13747+P26715+Q13241)
T1 construct: a linker into which cDNA encoding the extracellular domain of type II membrane proteins is inserted; Flag (N); CD8 leader (N); made in house; host or cells: 293T cells for the Fc fusion proteins; mouse RMA-S transfectants for HLA-E and B2M
Assay: not given
Conditions: peptide bound to HLA-E; cited from earlier work

T1 sequence (P61769 21-119): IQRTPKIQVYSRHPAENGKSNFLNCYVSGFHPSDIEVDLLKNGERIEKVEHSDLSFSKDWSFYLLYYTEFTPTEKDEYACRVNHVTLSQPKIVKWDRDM
T1 sequence (P26715 94-233): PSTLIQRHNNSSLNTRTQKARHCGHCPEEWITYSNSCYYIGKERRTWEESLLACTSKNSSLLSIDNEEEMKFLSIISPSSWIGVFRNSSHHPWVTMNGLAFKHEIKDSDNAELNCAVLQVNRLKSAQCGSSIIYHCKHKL
T1 sequence (P13747 22-358): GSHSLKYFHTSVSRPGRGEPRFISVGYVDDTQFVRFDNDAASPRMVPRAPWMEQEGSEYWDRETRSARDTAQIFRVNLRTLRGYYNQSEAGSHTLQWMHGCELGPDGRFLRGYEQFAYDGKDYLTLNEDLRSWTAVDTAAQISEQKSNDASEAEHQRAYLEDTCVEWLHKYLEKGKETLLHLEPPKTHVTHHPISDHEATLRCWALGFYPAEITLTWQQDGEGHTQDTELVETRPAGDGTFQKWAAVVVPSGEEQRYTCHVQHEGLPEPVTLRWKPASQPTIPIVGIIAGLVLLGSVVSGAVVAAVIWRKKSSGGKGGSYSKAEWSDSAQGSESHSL
T1 sequence (Q13241 32-179): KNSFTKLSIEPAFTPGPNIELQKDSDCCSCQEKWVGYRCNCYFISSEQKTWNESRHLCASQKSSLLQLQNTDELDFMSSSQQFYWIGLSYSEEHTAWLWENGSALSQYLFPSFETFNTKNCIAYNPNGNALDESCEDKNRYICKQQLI

Row | Sequence | binding of HLA-E/peptide to CD94-NKG2A
1 | VMAPRTLFL [HLA-G leader peptide] | bind both CD94-NKG2A and CD94-NKG2C (albeit with low affinity)

Target: T2, sHLA-E*01:03 (Homo sapiens, UniProt P13747)
T2 construct: A soluble construct of HLA-E*01:03 was constructed by removing the transmembrane and cytoplasmic domains; expressed in transfected cells; host or cells: human U-373MG cells, uninfected or infected with CMV strain AD169
Assay: Identification of peptides eluted from soluble HLA-E of CMV-infected vs uninfected U-373MG cells by immunoaffinity purification and LC-MS/MS
Format: binding
Conditions: number of spectra for the peptide, LC-MS/MS identification of HLA-E ligands (Table 1)

Row | Sequence | # Spec
2 | SASSATACTSGVMT | 439
3 | SASSATACTSGVMTR | 439
4 | SDEELVTTER | 406
5 | VTGGGAMAGASTSAGR | 420

Same assay, conditions: number of spectra found for the HCMV peptide listed as HLA-E ligand (Table 1)

Row | Sequence | # Spec
6 | APSQKSKRSVTVEQPSTSADGSN (7) | 21
7 | AQGDDDVWTSGSDSDEELVTTER (85) | 393
8 | ARERGEFGDEDEEQEND (22) | 351
9 | ARERGEFGDEDEEQENDGEPR (21) | 351
10 | DDDVWTSGSDSDEELVTTER (87) | 396
11 | EAGGVGGSSGGGGGSGLLPAKRS (55) | 1211
12 | GPGLDNDLMNEPMGLGGLGGGGGGGGKKH (43) | 312
13 | HRHLPVAD (82) | 139
14 | MDGDVRTAADISSTER (63) (MDGDVRTAADISSTLR) | 519
15 | PATLTAYDK (57) | 572
16 | PNTYIHKTETD (60) | 221
17 | PTYDELPSRPPQ (4) | 730
18 | PVTGEDTFSAHGKSD (52) | 615
19 | RSVTVEQPSTSAD (9) | 28
20 | SQKSKRSVTVEQPSTSAD (8) | 23
21 | SSVSGVRTPR (17) (also: PTM present) | 2
22 | SVPAPRPSPISTAST (72) | $35
23 | SVTVEQPSTSA (12) | 29
24 | VLGPISGHV (78) | 14
25 | VLGPISGHVLK (79) | 14
26 | VRTAADISSTLR (67) | 2
27 | VRTAADISSTLRSVPAPRPSP (66) | 3
28 | VRTAADISSTLRSVPAPRPSPISTA (68) | 3
29 | VTFEFVPNTK (46) | 419
30 | VTVEQPSTSAD (13) | 30
31 | VWTSGSDSDEELVTTE (91) | 399

Target: T3, CD94-NKG2C (Homo sapiens, UniProt P13747+P26717+Q13241)
T3 construct: a linker into which cDNA encoding the extracellular domain of type II membrane proteins is inserted; Flag (N); CD8 leader (N); made in house; host or cells: 293T cells for the Fc fusion proteins; mouse RMA-S transfectants for HLA-E and B2M
T3 sequence (Q13241 32-179): as the sequence (Q13241 32-179) above
T3 sequence (P61769 21-119, further chain): as the sequence (P61769 21-119) above
T3 sequence (P13747 22-358): as the sequence (P13747 22-358) above
T3 sequence (P26717 94-231): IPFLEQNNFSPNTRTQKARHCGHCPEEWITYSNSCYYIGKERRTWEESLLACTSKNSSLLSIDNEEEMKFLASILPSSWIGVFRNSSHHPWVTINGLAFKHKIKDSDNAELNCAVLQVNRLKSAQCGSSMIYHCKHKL
Assay: not given
Conditions: peptide bound to HLA-E; cited from earlier work

Row | Sequence | binding of HLA-E/peptide to CD94-NKG2C
32 | VMAPRTLFL [HLA-G leader peptide] | bind both CD94-NKG2A and CD94-NKG2C (albeit with low affinity)
